Measurements from article PMC11931385, “Structural and functional analysis of cancer-associated missense variants in the retinoblastoma protein pocket domain” (The Journal of Biological Chemistry, 2025).
Substitutions are numbered along the chain they refer to. Numbers in names are those of the source. No end group written: not given here. TMR = tetramethyl rhodamine dye

Legend:
Test in all cases: fluorescence polarisation; 25 °C; unlabeled Rb^P titrated against 1.5 nM TMR-E2F1^TD or 7.5 nM TMR-E7^LxCxE; 25 mM Tris pH 8.0, 200 mM NaCl, 1 mM DTT, 0.1% Tween-20; 2 min incubation; quadratic fit; apparent Kd for the variants, Kd for WT
Details in all cases: both partners purified
[1] = molecular target: T1, retinoblastoma protein pocket domain (Rb^P), wild type (human, UniProt P06400 380-788)
T1 construct: also called WT Rb^P; WT
T1 sequence (looked up): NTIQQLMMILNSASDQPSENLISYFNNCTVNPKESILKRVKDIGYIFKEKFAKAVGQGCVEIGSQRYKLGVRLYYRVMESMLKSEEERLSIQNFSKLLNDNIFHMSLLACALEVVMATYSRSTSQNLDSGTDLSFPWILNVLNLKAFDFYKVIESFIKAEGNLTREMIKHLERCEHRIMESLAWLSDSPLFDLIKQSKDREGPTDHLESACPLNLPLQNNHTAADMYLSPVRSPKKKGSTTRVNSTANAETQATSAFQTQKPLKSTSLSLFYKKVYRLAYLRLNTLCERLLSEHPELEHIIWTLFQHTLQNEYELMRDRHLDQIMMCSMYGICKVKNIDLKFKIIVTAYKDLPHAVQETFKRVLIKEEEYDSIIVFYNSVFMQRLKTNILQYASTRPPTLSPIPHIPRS

Rb^P L572I = molecular target: T2, Rb^P L572I (human, UniProt P06400 380-788, L572I)
T2 construct: also called variant 31
T2 sequence (looked up): T1 sequence (looked up) with L193I

Rb^P S588F = molecular target: T3, Rb^P S588F (human, UniProt P06400 380-788, S588F)
T3 construct: also called variant 34
T3 sequence (looked up): T1 sequence (looked up) with S209F

Rb^P T664A = molecular target: T4, Rb^P T664A (human, UniProt P06400 380-788, T664A)
T4 construct: also called variant 50
T4 sequence (looked up): T1 sequence (looked up) with T285A

Rb^P D697E = molecular target: T5, Rb^P D697E (human, UniProt P06400 380-788, D697E)
T5 construct: also called variant 62
T5 sequence (looked up): T1 sequence (looked up) with D318E

B1: TMR-E2F1^TD, peptide of the E2F1 transactivation domain (peptide)
peptide: {TMR}-GEGIRDLFDCDFGDLTPLD
notes: also called E2F^TD; source: synthetic peptide, bought: GenScript
B1 was tested, and the Kd [1] was 14 nM, the Kd (Rb^P L572I) was 37 nM and the Kd (Rb^P S588F) was 36 nM. The Kd (Rb^P T664A) was 15 nM and the Kd (Rb^P D697E) was 29 nM.

B2: TMR-E7^LxCxE, LxCxE peptide of the E7 oncoprotein from HPV (peptide)
peptide: DLYCYEQLN
modifications: also: TMR label, position not given here
notes: source: synthetic peptide, bought: GenScript
Work on B2 yielded a Kd [1] of 5 nM, a Kd (Rb^P L572I) of 4 nM and a Kd (Rb^P S588F) of 5 nM. The Kd (Rb^P T664A) was 8 nM and the Kd (Rb^P D697E) was 9 nM.
